The numbers were not newly measured in article PMC9884707, which cites them from elsewhere.

In general, Kd refers to the concentration at which binding is half-saturated.

In this data set the target is SHARPIN PH domain (20-121) (Homo sapiens) (UniProt Q9H0F6).

Regarding “SHARPIN PH domain (20-121) (from UniProt Q9H0F6)”, the equilibrium dissociation constant (Kd) was 124 µM.
